Test results from article doi:10.1101/2021.03.10.433854.
pKd: −log10 of the molar value. Several values for one entry are separate records, joined by “and”; a condition that tells them apart may be missing. Equal values may be shown once. Read-outs that look alike come from different tables or passages of the source.

Assays:
Experiment in all cases: SPR
[1] = biological target: catalytic domain of human AURKA (amino acids 122-430) (human)
[2] = biological target: catalytic domain of human AURKA (amino acids 122-430) (human); remark: listed apart in the source
[3] = biological target: catalytic domain of human AURKA (amino acids 122-430) (human); remark: listed apart in the source

pKd [1]: < 4.82
pKd [2]: 6.00
koff [2]: 0.0659 s⁻¹
kon [2]: 63000 M⁻¹ s⁻¹
pKd [3]: 6.16 and 5.40
Substance: AURKA interacting region (AIR) of N-Myc (N-Myc residues 61-89) (from UniProt P04198 61-89) (peptide)
